# From US6403765B1, “Truncated Apaf-1 and methods of use thereof” (Thomas Jefferson University, priority 1998, dated 2002)
# Numbering of substitutions follows the chain as printed.
# B1: Apaf-530: truncated Apaf-1 (residues 1-530) lacking its WD-40 repeats, recombinant (protein, UniProt O14727 1-530, looked up, fragment)
# chain: MDAKARNCLLQHREALEKDIKTSYIMDHMISDGFLTISEEEKVRNEPTQQQRAAMLIKMILKKDNDSYVSFYNALLHEGYKDLAALLHDGIPVVSSSSGKDSVSGITSYVRTVLCEGGVPQRPVVFVTRKKLVNAIQQKLSKLKGEPGWVTIHGMAGCGKSVLAAEAVRDHSLLEGCFPGGVHWVSVGKQDKSGLLMKLQNLCTRLDQDESFSQRLPLNIEEAKDRLRILMLRKHPRSLLILDDVWDSWVLKAFDSQCQILLTTRDKSVTDSVMGPKYVVPVESSLGKEKGLEILSLFVNMKKADLPEQAHSIIKECKGSPLVVSLIGALLRDFPNRWEYYLKQLQNKQFKRIRKSSSYDYEALDEAMSISVEMLREDIKDYYTDLSILQKDVKVPTKVLCILWDMETEEVEDILQEFVNKSLLFCDRNGKSFRYYLHDLQVDFLTEKNCSQLQDLHKKIITQFQRYHQPHTLSPDQEDCMYWYNFLAYHMASAKMHKELCALMFSLDWIKAKTELVGPAHLIHEFVEYR
# Tests used:
# Experiment in all cases: In vitro caspase 9 activation assay: recombinant Apaf-1 variants incubated with in vitro translated procaspase-9
# Format in all cases: biochemical
# [1] = molecular target: T1, procaspase-9 (Homo sapiens, UniProt P55211)
# T1 construct: schematic representation of full length procaspase-9; made in house; host or cells: coupled in vitro transcription/translation in rabbit reticulocyte lysate (TNT Kit, Promega)
# T1 sequence (P55211 134-416): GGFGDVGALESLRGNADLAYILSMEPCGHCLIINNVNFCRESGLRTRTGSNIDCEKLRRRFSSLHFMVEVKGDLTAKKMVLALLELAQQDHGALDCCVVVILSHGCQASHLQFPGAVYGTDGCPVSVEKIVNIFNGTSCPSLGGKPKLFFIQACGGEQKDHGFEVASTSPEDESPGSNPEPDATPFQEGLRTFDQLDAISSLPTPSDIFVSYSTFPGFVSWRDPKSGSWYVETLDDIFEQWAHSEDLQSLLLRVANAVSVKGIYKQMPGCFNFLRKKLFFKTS
# [2] = molecular target: T2, procaspase-9 (Homo sapiens, UniProt P55211); conditions: in the absence of cytochrome c or dATP; 200 ng protein, 2 h at 30° C.; SDS-PAGE and autoradiography (FIG. 2A)
# T2 construct: schematic representation of full length procaspase-9; made in house; host or cells: coupled in vitro transcription/translation in rabbit reticulocyte lysate (TNT Kit, Promega)
# T2 sequence (P55211 1-416): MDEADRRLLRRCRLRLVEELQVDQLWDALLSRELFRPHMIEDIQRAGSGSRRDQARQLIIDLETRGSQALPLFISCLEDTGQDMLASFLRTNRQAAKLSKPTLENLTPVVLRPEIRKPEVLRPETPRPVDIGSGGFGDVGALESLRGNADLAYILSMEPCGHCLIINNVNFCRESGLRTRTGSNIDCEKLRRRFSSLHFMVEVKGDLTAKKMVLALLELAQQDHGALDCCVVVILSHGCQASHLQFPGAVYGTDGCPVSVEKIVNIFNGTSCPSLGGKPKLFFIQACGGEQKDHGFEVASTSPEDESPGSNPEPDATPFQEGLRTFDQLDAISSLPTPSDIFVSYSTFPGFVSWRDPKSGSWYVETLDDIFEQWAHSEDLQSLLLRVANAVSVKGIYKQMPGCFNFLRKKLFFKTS
# [3] = molecular target: T3, procaspase-9 (Homo sapiens, UniProt P55211, C287A)
# T3 construct: schematic representation of full length procaspase-9; made in house; host or cells: coupled in vitro transcription/translation in rabbit reticulocyte lysate (TNT Kit, Promega)
# T3 sequence (P55211 1-416 C287A): T2 sequence (P55211 1-416) with C287A
# [4] = molecular target: T4, procaspase-9 (Homo sapiens, UniProt P55211, D315A); conditions: 35S-labeled substrate, FIG. 3
# T4 construct: schematic representation of full length procaspase-9; made in house; host or cells: coupled in vitro transcription/translation in rabbit reticulocyte lysate (TNT Kit, Promega)
# T4 sequence (P55211 1-416 D315A): T2 sequence (P55211 1-416) with D315A
# [5] = tested on: procaspase-9
# [6] = in the presence of non-radiolabeled WT procaspase-9, FIG. 14
molecule,measurement,setting,value
B1,processing of prodomainless procaspase-9 (residues 134-416),"[1]; 35S-labeled substrate, FIG. 3",prevented processing
same,processing of 35S-labeled prodomainless procaspase-9,[1]; [6],not
same,processing of procaspase-9 to produce a 35 kDa fragment (p35),[2],able to promote processing of procaspase-9
same,processing of procaspase-9 active site C287A mutant,"[3]; 35S-labeled substrate, FIG. 3",unable to promote processing
same,processing of 35S-labeled C287A mutant procaspase-9,[3]; [6],able to induce processing
same,processing of D315A mutant procaspase-9,[4],unable to process
same,processing of WT or D330A mutant procaspase-9,"[5]; 35S-labeled substrate, FIG. 3",produced the p35 fragment
same,autoprocessing of C287A and R355E mutant procaspase-9,"[5]; mutants incubated separately or together, 1 hour at 30° C., FIG. 13",none of the mutants were able to autoprocess
